# Source: patent publication US20170202936A1 (VAXON BIOTECH, published 2017)
# Molecular target: T1, HLA-B*0702 (human)
# T1 construct: MHC class I molecule on T2-B7 cells; also called HLA-B7
# Test: assay not given
row,Binder,binding result
1,APKHSDCLA (Synthetic optimized peptide; Her2/neu246 with A at position 1) [Her2/neu246A1],binds

# Molecular target: T1, HLA-B*0702
# Test: T2-B7 cells, HLA-B*0702 surface expression (ME-1 mAb); ratio to reference peptide CMV265-274 (SEQ ID NO: 9)
# Text: (§1) The protocol used has been described previously (Rohrlich et al., 2003).
row,Binder,RA (relative affinity) [ratio]
1,YPEEISSMVL (also called Hsp115) [Hsp70 115],> 10
2,YPVTNAVITV (also called Hsp137) [Hsp70 137 (10)],> 10
3,APRRLVQLL (TERT444 with A at position 1) [TERT444A1],1.4
4,APRCRAVRSL [TERT4],0.74

# Molecular target: T1, HLA-B*0702
# Test: RA grade (++ = RA < 1), T2-B7 cells, ME-1 mAb staining
# Text: as §1
row,Binder,relative affinity (RA): ratio of peptide concentration to reference peptide concentration inducing 20% of HLA-B*0702 expression [ratio]
1,APRMHCAVDL [APRMHCAVDL (SEQ ID NO: 45)],< 1
2,APRSLGLEL [Hsp70397R3L9],< 1
3,APRSPLAPL (Synthetic optimized peptide; Her2/neu1069 with L at the C-terminal position) [Her2/neu1069L9],< 1
4,APRVSIRLPL [APRVSIRLPL (SEQ ID NO: 46)],< 1

# Molecular target: T1, HLA-B*0702
# Test: RA grade (+ = 1 < RA < 10), T2-B7 cells, ME-1 mAb staining
# Text: as §1
row,Binder,relative affinity (RA): ratio of peptide concentration to reference peptide concentration inducing 20% of HLA-B*0702 expression [ratio]
1,APREISSMVL (Hsp70 115 with A at position 1 and R at position 3) [Hsp70115A1R3],1 to 10
2,APREYVNAL [APREYVNAL (SEQ ID NO: 47)],1 to 10
3,APRTKAEML [APRTKAEML (SEQ ID NO: 57)],1 to 10
4,APRRRLGCEL [APRRRLGCEL (SEQ ID NO: 51)],1 to 10
5,APRALVETL [APRALVETL (SEQ ID NO: 49)],1 to 10
6,APRRLVQLL (TERT444 with A at position 1) [TERT444A1],1 to 10
7,APRCRAVRSL [TERT4],1 to 10
8,APRPWTPCL [APRPWTPCL (SEQ ID NO: 52)],1 to 10
